The values that follow come from US9618524B2, “Method, composition, isolation and identification of a plaque particle and related biomarker” (Plaxgen Inc., priority 2012, dated 2017).

To fix the notation:
B1: Isoform LMW of Kininogen-1 (protein)
chain: QESQSEEIDCNDKDLFKAVDAALKKYNSQNQSNNQFVLYRITEATKTVGSDTFYSFKYEIKEGDCPVQSGKTWQDCEYKDAAKAATGECTATVGKRSSTKFSVATQTCQITPAEGPVVTAQYDCLGCVHPISTQSPDLEPILRHGIQYFNNNTQHSSLFMLNEVKRAQRQVVAGLNFRITYSIVQTNCSKENFLFLTPDCKSLWNGDTGECTDNAYIDIQLRIASFSQNCDIYPGKDFVQPPTKICVGCPRDIPTNSPELEETLTHTITKLNAENNATFYFKIDNVKKARVQVVAGKKYFIDFVARETTCSKESNEELTESCETKKLGQSLDCNAEVYVVPWEKKIYPTVNCQPLGMISLMKRPPGFSPFRSSRIGEIKEETTSHLRSCEYKGRPPKAGAEPASEREVS
B2: Histidine-rich glycoprotein (protein)
chain: VSPTDCSAVEPEAEKALDLINKRRRDGYLFQLLRIADAHLDRVENTTVYYLVLDVQESDCSVLSRKYWNDCEPPDSRRPSEIVIGQCKVIATRHSHESQDLRVIDFNCTTSSVSSALANTKDSPVLIDFFEDTERYRKQANKALEKYKEENDDFASFRVDRIERVARVRGGEGTGYFVDFSVRNCPRHHFPRHPNVFGFCRADLFYDVEALDLESPKNLVINCEVFDPQEHENINGVPPHLGHPFHWGGHERSSTTKPPFKPHGSRDHHHPHKPHEHGPPPPPDERDHSHGPPLPQGPPPLLPMSCSSCQHATFGTNGAQRHSHNNNSSDLHPHKHHSHEQHPHGHHPHAHHPHEHDTHRQHPHGHHPHGHHPHGHHPHGHHPHGHHPHCHDFQDYGPCDPPPHNQGHCCHGHGPPPGHLRRRGPGKGPRPFHCRQIGSVYRLPPLRKGEVLPLPEANFPSFPLPHHKHPLKPDNQPFPQSVSESCPGKFKSGFPQVSMFFTHTFPK
B3: Beta-2-glycoprotein 1 (protein)
chain: GRTCPKPDDLPFSTVVPLKTFYEPGEEITYSCKPGYVSRGGMRKFICPLTGLWPINTLKCTPRVCPFAGILENGAVRYTTFEYPNTISFSCNTGFYLNGADSAKCTEEGKWSPELPVCAPIICPPPSIPTFATLRVYKPSAGNNSLYRDTAVFECLPQHAMFGNDTITCTTHGNWTKLPECREVKCPFPSRPDNGFVNYPAKPTLYYKDKATFGCHDGYSLDGPEEIECTKLGNWSAMPSCKASCKVPVKKATVVYQGERVKIQEKFKNGMLHGDKVSFFCKNKEKKCSYTEDAQCIDGTIEVPKCFKEHSSLAFWKTDASDVKPC
B4: Apolipoprotein A-IV (protein)
chain: EVSADQVATVMWDYFSQLSNNAKEAVEHLQKSELTQQLNALFQDKLGEVNTYAGDLQKKLVPFATELHERLAKDSEKLKEEIGKELEELRARLLPHANEVSQKIGDNLRELQQRLEPYADQLRTQVSTQAEQLRRQLTPYAQRMERVLRENADSLQASLRPHADELKAKIDQNVEELKGRLTPYADEFKVKIDQTVEELRRSLAPYAQDTQEKLNHQLEGLTFQMKKNAEELKARISASAEELRQRLAPLAEDVRGNLRGNTEGLQKSLAELGGHLDQQVEEFRRRVEPYGENFNKALVQQMEQLRQKLGPHAGDVEGHLSFLEKDLRDKVNSFFSTFKEKESQDKTLSLPELEQQQEQQQEQQQEQVQMLAPLES
B5: Alpha-2-HS-glycoprotein (protein)
chain 1: APHGPGLIYRQPNCDDPETEEAALVAIDYINQNLPWGYKHTLNQIDEVKVWPQQPSGELFEIEIDTLETTCHVLDPTPVARCSVRQLKEHAVEGDCDFQLLKLDGKFSVVYAKCDSSPDSAEDVRKVCQDCPLLAPLNDTRVVHAAKAALAAFNAQNNGSNFQLEEISRAQLVPLPPSTYVEFTVSGTDCVAKEATEAAKCNLLAEKQYGFCKATLSEKLGGAEVAVTCMVFQTQPVSSQPQPEGANEAVPTPVVDPDAPPSPPLGAPGLPPAGSPPDSHVL
chain 2: TVVQPSVGAAAGPVVPPCPGRIRHFKV
B6: Afamin (protein)
chain: LPTQPRDIENFNSTQKFIEDNIEYITIIAFAQYVQEATFEEMEKLVKDMVEYKDRCMADKTLPECSKLPNNVLQEKICAMEGLPQKHNFSHCCSKVDAQRRLCFFYNKKSDVGFLPPFPTLDPEEKCQAYESNRESLLNHFLYEVARRNPFVFAPTLLTVAVHFEEVAKSCCEEQNKVNCLQTRAIPVTQYLKAFSSYQKHVCGALLKFGTKVVHFIYIAILSQKFPKIEFKELISLVEDVSSNYDGCCEGDVVQCIRDTSKVMNHICSKQDSISSKIKECCEKKIPERGQCIINSNKDDRPKDLSLREGKFTDSENVCQERDADPDTFFAKFTFEYSRRHPDLSIPELLRIVQIYKDLLRNCCNTENPPGCYRYAEDKFNETTEKSLKMVQQECKHFQNLGKDGLKYHYLIRLTKIAPQLSTEELVSLGEKMVTAFTTCCTLSEEFACVDNLADLVFGELCGVNENRTINPAVDHCCKTNFAFRRPCFESLKADKTYVPPPFSQDLFTFHADMCQSQNEELQRKTDRFLVNLVKLKHELTDEELQSLFTNFANVVDKCCKAESPEVCFNEESPKIGN
B7: Cluster of Kininogen-1 (protein, UniProt P01042 19-644, looked up)
Kininogen-1: QESQSEEIDCNDKDLFKAVDAALKKYNSQNQSNNQFVLYRITEATKTVGSDTFYSFKYEIKEGDCPVQSGKTWQDCEYKDAAKAATGECTATVGKRSSTKFSVATQTCQITPAEGPVVTAQYDCLGCVHPISTQSPDLEPILRHGIQYFNNNTQHSSLFMLNEVKRAQRQVVAGLNFRITYSIVQTNCSKENFLFLTPDCKSLWNGDTGECTDNAYIDIQLRIASFSQNCDIYPGKDFVQPPTKICVGCPRDIPTNSPELEETLTHTITKLNAENNATFYFKIDNVKKARVQVVAGKKYFIDFVARETTCSKESNEELTESCETKKLGQSLDCNAEVYVVPWEKKIYPTVNCQPLGMISLMKRPPGFSPFRSSRIGEIKEETTVSPPHTSMAPAQDEERDSGKEQGHTRRHDWGHEKQRKHNLGHGHKHERDQGHGHQRGHGLGHGHEQQHGLGHGHKFKLDDDLEHQGGHVLDHGHKHKHGHGHGKHKNKGKKNGKHNGWKTEHLASSSEDSTTPSAQTQEKTEGPTPIPSLAKPGVTVTFSDFQDSDLIATMMPPISPAPIQSDDDWIPDIQIDPNGLSFNPISDFPDTTSPKCPGRPWKSVSEINPTTQMKESYYFDLTDGLS
B8: Kininogen-1 (protein)
chain: B7 Kininogen-1

The first assay addresses T1, alpha-synuclein plaque particles (Homo sapiens, UniProt P37840).
T1 construct: 140 amino acids polypeptide
Briefly: Mass spectroscopy proteomics, semi-quantitative binding affinity of serum proteins (plaqueproteome, Table 2). The note with it: higher number = stronger affinity. The method in brief:
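AD-subject plasma or serum (800 μL of 50%) mixed with 30 μg preformed alpha-synuclein aggregates for 1 h at 37 °C; Thioflavin S-positive particles isolated by flow sorting. After reduction, acrylamide alkylation and overnight tryptic digestion, serum proteins identified by MS/MS with Sequest and Scaffold.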
On to B1, for which the “Semi-quantitative analysis of proteins binding to different plaque particles: Synuclein” value worked out at 6.

On to B2, for which the “Semi-quantitative analysis of proteins binding to different plaque particles: Synuclein” value was determined as 9.

For B3, the “Semi-quantitative analysis of proteins binding to different plaque particles: Synuclein” value is 7.

As for B4, the “Semi-quantitative analysis of proteins binding to different plaque particles: Synuclein” value worked out at 7.

In the case of B5, the “Semi-quantitative analysis of proteins binding to different plaque particles: Synuclein” value stood at 10.

In the case of B6, the “Semi-quantitative analysis of proteins binding to different plaque particles: Synuclein” value is 6.

Turning to B7, the “Semi-quantitative analysis of proteins binding to different plaque particles: Synuclein” value turned out to be 6.

For the molecule B8, the “Semi-quantitative analysis of proteins binding to different plaque particles: Synuclein” value worked out at 4.

A further assay deals with High Density cholesterol (Chl Large) plaque particles. The description is as above. Further details: species or system human. The note with it: higher number = stronger affinity. The method in brief: (§1)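 Proteins bound to flow-sorted cholesterol plaque particles (large/high-density or small/low-density gates) were identified by LC-MS/MS after trypsin digestion. Particles were formed from 50% atherosclerotic serum or plasma with 30 μg cholesterol aggregates, 1 h, 37 °C. Sequest human database search; Scaffold validation.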
As for B1, the “Semi-quantitative analysis of proteins binding to different plaque particles: Chl Large” value came to 4.

With B2, the “Semi-quantitative analysis of proteins binding to different plaque particles: Chl Large” value is 10.

Turning to B3, the “Semi-quantitative analysis of proteins binding to different plaque particles: Chl Large” value is on record as 6.

With B4, the “Semi-quantitative analysis of proteins binding to different plaque particles: Chl Large” value amounted to 8.

For B5, the “Semi-quantitative analysis of proteins binding to different plaque particles: Chl Large” value worked out at 9.

For the molecule B6, the “Semi-quantitative analysis of proteins binding to different plaque particles: Chl Large” value is recorded as 6.

For B7, the “Semi-quantitative analysis of proteins binding to different plaque particles: Chl Large” value is listed as 4.

For B8, the “Semi-quantitative analysis of proteins binding to different plaque particles: Chl Large” value is listed as 3.

The test system of the next assay is Low density cholesterol (Chl small) plaque particles. The assay is described as above. The conditions noted are these: higher number = stronger affinity. Further details: species or system human. A digest of the protocol: as §1
Consider B1, for which the “Semi-quantitative analysis of proteins binding to different plaque particles: Chl small” value came to 8.

For the molecule B2, the “Semi-quantitative analysis of proteins binding to different plaque particles: Chl small” value is 9.

Take B3: the “Semi-quantitative analysis of proteins binding to different plaque particles: Chl small” value is 6.

Take B4: the “Semi-quantitative analysis of proteins binding to different plaque particles: Chl small” value was found to be 9.

As for B5, the “Semi-quantitative analysis of proteins binding to different plaque particles: Chl small” value is 11.

For B6, the “Semi-quantitative analysis of proteins binding to different plaque particles: Chl small” value is reported as 6.

As to B7, the “Semi-quantitative analysis of proteins binding to different plaque particles: Chl small” value came out at 8.

As for B8, the “Semi-quantitative analysis of proteins binding to different plaque particles: Chl small” value is recorded as 7.

A further assay has as its target T2, Abeta-42 plaque particles (Homo sapiens, UniProt P05067).
T2 construct: Abeta 1-42
Described as above. The note with it: higher number = stronger affinity. A digest of the protocol:
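AD patient serum or plasma (50% in PBS) was incubated with Abeta-42 aggregates (30 μg) for 1 h at 37 °C, then stained with Thioflavin S for 30 min. Labeled particles were FACS-sorted, trypsin/Lys-C digested overnight and analyzed by MS/MS. Sequest searched human UniProt; Scaffold/Protein Prophet validated the identifications.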
With B1, the “Semi-quantitative analysis of proteins binding to different plaque particles: Abeta-42” value worked out at 0.

On to B2, for which the “Semi-quantitative analysis of proteins binding to different plaque particles: Abeta-42” value came out at 7.

Regarding B3, the “Semi-quantitative analysis of proteins binding to different plaque particles: Abeta-42” value was found to be 4.

On to B4, for which the “Semi-quantitative analysis of proteins binding to different plaque particles: Abeta-42” value is reported as 5.

Consider B5, for which the “Semi-quantitative analysis of proteins binding to different plaque particles: Abeta-42” value is listed as 2.

B6: the “Semi-quantitative analysis of proteins binding to different plaque particles: Abeta-42” value came to 2.

Turning to B7, the “Semi-quantitative analysis of proteins binding to different plaque particles: Abeta-42” value came out at 0.

For the molecule B8, the “Semi-quantitative analysis of proteins binding to different plaque particles: Abeta-42” value is 0.

In another assay the test system is Tau plaque particles. The assay is described as above. Further details: species or system human. The note with it: higher number = stronger affinity. The method in brief: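 Serum or plasma proteins captured on Thioflavin S-labelled Tau plaque particles (Tau-74, Tau-275 oligomers preformed in PBS at 37° C for 2 h; 1 h co-incubation at 37° C) were isolated by FACS sorting, then tryptically digested and identified by MS/MS (Sequest, human UniProt, strict trypsin).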
In the case of B1, the “Semi-quantitative analysis of proteins binding to different plaque particles: Tau” value came out at 1.

Turning to B2, the “Semi-quantitative analysis of proteins binding to different plaque particles: Tau” value is reported as 12.

For B3, the “Semi-quantitative analysis of proteins binding to different plaque particles: Tau” value turned out to be 5.

Take B4: the “Semi-quantitative analysis of proteins binding to different plaque particles: Tau” value is given as 10.

For B5, the “Semi-quantitative analysis of proteins binding to different plaque particles: Tau” value is 10.

With B6, the “Semi-quantitative analysis of proteins binding to different plaque particles: Tau” value amounted to 3.

B7: the “Semi-quantitative analysis of proteins binding to different plaque particles: Tau” value was 1.

B8: the “Semi-quantitative analysis of proteins binding to different plaque particles: Tau” value is reported as 1.
